According to patent publication US20230287143A1 (published 2023):
Blank lines part the entries; values can stand above or below the binder they belong to.

Key:
human PD-L1 = biological target: T1, human PD-L1 (human, UniProt Q9NZQ7 19-290); test: flow cytometry on CHO-K1/hPD-L1 cells
T1 construct: whole, on cells; also called CD274; B7-H1
Procedure: (§1) The cells were incubated at 4° C. for 1 h away from light. […] Then, the cells in each well were then rinsed twice with 200 μL of pre-cooled FACS buffer and centrifuged at 500 g at 4° C. for 5 min, and then the supernatant was discarded. Finally, a pre-cooled FACS buffer was added at 200 μL/well to resuspend the cells.

human CTLA4 = biological target: T2, human CTLA4 (human, UniProt P16410 36-223); test: flow cytometry on CHO-K1/hCTLA4 cells
T2 construct: whole, on cells; also called CD152; CHO-K1/hCTLA4
Procedure: as §1

human 4-1BB = biological target: T3, human 4-1BB (human, UniProt Q07011 24-255); test: flow cytometry on CHO-K1/hu 4-1BB cells
T3 construct: whole, on cells; also called CD137; TNFRSF9
Procedure: as §1, with “Specifically, the cells were digested and resuspended in a complete medium, and the cell density was adjusted to 2×10⁶ cells/mL. […] The cells” for “The cells”

[1] = biological target: T4, recombinant human BCMA-ECD-Fc fusion protein (ACRO Biosystems, #BC7-H82F0), biotinylated (human, UniProt Q02223 1-54, biotinylated with EZ-Link Sulfo-NHS-LC-Biotin (sites not given)); test: BLI (Octet Red96e), biotinylated BCMA-ECD-Fc on SA sensor, binding protein 10-2.5 nM in solution, 1:1 global fitting
T4 construct: extracellular domain; Bought protein; also called biotinylated BCMA
T4 sequence (looked up): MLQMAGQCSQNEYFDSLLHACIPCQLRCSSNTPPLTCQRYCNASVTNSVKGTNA
Procedure: In this example, the binding kinetics between the BCMA binding protein and BCMA were analyzed by the Biolayer Interferometry (BLI) technique using an Octet molecular interaction analyzer (ForteBio, Octet Red96e).
Two columns of SA sensors (8 sensors in each column; with the sensors in the first column referred to as the reference SA sensor and the sensors in the second column referred to as the test SA sensor) were firstly equilibrated in the equilibration buffer for 10 min. Then, the biotinylated BCMA were captured by test SA sensors with a capture height of 0.2 nm, and the reference SA sensors were immersed in the buffer for 30 s. The two arrays of sensors were combined with the test BCMA-binding protein at concentrations obtained by a two-fold dilution from 10 nM to 2.5 nM and a concentration of 0 nM. The sensors were combined with the test proteins for 180 s and then dissociated for 800 s.
When data analysis was performed using Octet Data Analysis software (Fortebio, version 11.0), the reference signals were subtracted by a double reference mode; the data were fitted by a “1:1 Global fitting” method, and the kinetic parameters of the binding of the antigen to the antigen-binding protein were calculated to obtain kₒₙ (1/Ms) values, kdis (1/s) values and KD (M) values.

T1 sequence (Q9NZQ7 19-290): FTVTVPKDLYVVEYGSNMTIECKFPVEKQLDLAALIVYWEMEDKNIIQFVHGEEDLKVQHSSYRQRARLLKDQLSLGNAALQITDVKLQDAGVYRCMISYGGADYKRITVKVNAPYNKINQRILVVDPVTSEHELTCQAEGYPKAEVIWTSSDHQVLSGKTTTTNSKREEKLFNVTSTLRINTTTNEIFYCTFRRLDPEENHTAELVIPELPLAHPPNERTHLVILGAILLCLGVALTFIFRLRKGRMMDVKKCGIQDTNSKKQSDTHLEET
T3 sequence (Q07011 24-255): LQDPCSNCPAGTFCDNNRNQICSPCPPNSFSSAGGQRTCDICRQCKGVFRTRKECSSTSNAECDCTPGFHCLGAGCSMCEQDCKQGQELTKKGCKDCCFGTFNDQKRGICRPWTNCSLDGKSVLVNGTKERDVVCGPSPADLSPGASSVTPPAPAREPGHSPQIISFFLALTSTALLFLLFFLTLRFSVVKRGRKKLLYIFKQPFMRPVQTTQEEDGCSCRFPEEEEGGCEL
T2 sequence (P16410 36-223): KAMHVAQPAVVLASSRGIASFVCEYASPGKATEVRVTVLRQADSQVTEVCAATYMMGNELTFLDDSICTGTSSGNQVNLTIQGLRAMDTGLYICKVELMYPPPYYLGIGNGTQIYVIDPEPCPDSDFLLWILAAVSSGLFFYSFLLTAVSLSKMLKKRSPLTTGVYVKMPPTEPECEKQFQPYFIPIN

binding result (human CTLA4): binds
B2: Anti-CTLA4 heavy-chain antibody CL5v3 (antibody, human IgG1, V domains shown)
VH: EVQLVESGGGLIQPGGSLRLSCAVSGFTVSKNYMSWVRQAPGKGLEWVSVVYSGGSKTYADSVKGRFTISRDNSKNTLYLQMNSLRAEDTAVYYCARAVPHSPSSFDIWGQGTMVTVSS
notes: Fully human heavy-chain-only antibody (HCAb), no light chain; also called PR000184

binding result (human PD-L1): binds
binding result (human 4-1BB): binds
B3: PR000701, PD-L1×4-1BB bispecific binding protein with the FIT-Ig structure (structure 5) (bispecific antibody, human IgG4 S228P, kappa)
chain 1: not shown
chain 2: EVQLVESGGGLVQPGGSLRLSCAASGFTFSSYWMSWVRQAPGKGLEWVANIKQEGSEKYYVDSVKGRFTISRDNAKNSLYLQMNSLRAEDTAVYYCARDRAVAGAFDIWGQGTMVTVSSASTKGPSVFPLAPSSKSTSGGTAALGCLVKDYFPEPVTVSWNSGALTSGVHTFPAVLQSSGLYSLSSVVTVPSSSLGTQTYICNVNHKPSNTKVDKKVEPKSC
light: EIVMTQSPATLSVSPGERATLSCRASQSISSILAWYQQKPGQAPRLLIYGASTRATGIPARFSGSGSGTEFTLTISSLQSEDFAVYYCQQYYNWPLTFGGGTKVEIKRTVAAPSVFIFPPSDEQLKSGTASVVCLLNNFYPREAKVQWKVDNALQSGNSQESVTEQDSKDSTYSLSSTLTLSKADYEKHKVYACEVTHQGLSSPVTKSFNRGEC
notes: FIT-Ig, symmetric tetravalent, three different chains; PD-L1 Fab of PR000265, 4-1BB Fab of PR000197 close to Fc; human IgG4

Continued, binder first:

B1: PR004268, PD-L1×4-1BB bispecific binding protein with the VH-IgG structure (structure 4) (bispecific antibody)
light: DIQMTQSPSTLSASVGDRVTVTCRASQSIYIWLAWYQQKPGKAPNLLIYKASSLETGVPSRFSGSGSGTEFTLTISSLQPDDFATYYCQQYYGSSRTFGQGTKVEIKRTVAAPSVFIFPPSDEQLKSGTASVVCLLNNFYPREAKVQWKVDNALQSGNSQESVTEQDSKDSTYSLSSTLTLSKADYEKHKVYACEVTHQGLSSPVTKSFNRGEC
heavy: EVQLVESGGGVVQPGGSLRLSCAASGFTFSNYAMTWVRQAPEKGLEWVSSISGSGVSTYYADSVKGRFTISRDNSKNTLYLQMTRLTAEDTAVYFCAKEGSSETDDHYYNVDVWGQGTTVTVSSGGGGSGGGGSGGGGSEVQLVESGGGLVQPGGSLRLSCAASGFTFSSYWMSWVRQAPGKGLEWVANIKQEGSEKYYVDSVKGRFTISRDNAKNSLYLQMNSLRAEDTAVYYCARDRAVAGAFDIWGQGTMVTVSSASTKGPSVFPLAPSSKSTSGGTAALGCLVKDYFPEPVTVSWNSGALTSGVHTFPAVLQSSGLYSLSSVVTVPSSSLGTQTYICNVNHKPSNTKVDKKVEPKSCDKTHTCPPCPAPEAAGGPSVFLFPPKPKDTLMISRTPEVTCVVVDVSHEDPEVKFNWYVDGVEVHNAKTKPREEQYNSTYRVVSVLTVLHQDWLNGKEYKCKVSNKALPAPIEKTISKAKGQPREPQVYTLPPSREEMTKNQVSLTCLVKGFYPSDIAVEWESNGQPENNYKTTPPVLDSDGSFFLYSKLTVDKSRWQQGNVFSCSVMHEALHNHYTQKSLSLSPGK
notes: 4-1BB VH (PR001760) at the N-terminus of the heavy chain of PD-L1 IgG (PR000265); linker GS_15; human IgG1 (LALA)
binding result (human PD-L1): binds

B4: PR005744, BCMA×BCMA bispecific binding protein with the Fab-HCAb structure (structure 1) (bispecific antibody, human IgG1, kappa)
chain 1: QVQLVESGGGVVQPGRSLRLSCAATGFTFSSYGMYWVRQAPGKGLEWVAAIWNDGSNNYYADSVKGRFTISRDDSKNTLNLQMNSLRAEDTAMYYCARDRLPMASLRYFDWLGVMDAWGQGTSVTVSSASTKGPSVFPLAPSSKSTSGGTAALGCLVKDYFPEPVTVSWNSGALTSGVHTFPAVLQSSGLYSLSSVVTVPSSSLGTQTYICNVNHKPSNTKVDKKVEPKSC
chain 2: not shown
notes: no first linker; human IgG1 hinge and Fc
Kd [1]: 0.0279 nM
koff [1]: 4.87e-05 s⁻¹
kon [1]: 1.75e+06 M⁻¹ s⁻¹

B5: Anti-BCMA heavy-chain antibody PR001046_R2_4G10 (antibody, human IgG1, V domains shown)
VH: EVQLVETGGGLIQPGGSLRLSCAASGFTVSDSYMTWVRQAPGKGLEWVSVIFSGGRTYYSDSVKGRFTISRDNAKNTLYLQMNSLRAEDTALYYCARRNYDDTRGTDVFDIWGQGTMVTVSS
notes: Fully human heavy-chain-only antibody (HCAb), bivalent, no light chain; also called PR004433
Kd [1]: 0.0792 nM
koff [1]: 7.16e-05 s⁻¹
kon [1]: 904000 M⁻¹ s⁻¹
